Earlier results in publication PMC8174820.

Tested on: Tyr134
Assay: chemical modification

Cellular retinoic acid binding protein 2 (CRABP2) (Homo sapiens (inferred; the review discusses the human proteome but does not name the species for CRABP2))
pKa: ∼7.6
